Laboratory results reported in patent US20160024193A1 (AC IMMUNE S A, published 2016).
No end group written: not given here. *: point of attachment. Biotin = O=C1N[C@H]2[C@H](CS[C@H]2CCCCC(=O)*)N1; linker = not defined here

What was measured:
[1] = molecular target: PKA-phosphorylated full-length Tau (Homo sapiens) (UniProt P10636); assay: ELISA: plate coated with 0.1 µg/ml PKA-phosphorylated full-length Tau, IgG titrated 0.06 pM to 1 nM, anti-human Fc-peroxidase/TMB, absorbance 450 nm [panel B]
Sequence of PKA-phosphorylated full-length Tau (Homo sapiens) (P10636 other isoform, or with tags, fused parts or gaps limits assumed): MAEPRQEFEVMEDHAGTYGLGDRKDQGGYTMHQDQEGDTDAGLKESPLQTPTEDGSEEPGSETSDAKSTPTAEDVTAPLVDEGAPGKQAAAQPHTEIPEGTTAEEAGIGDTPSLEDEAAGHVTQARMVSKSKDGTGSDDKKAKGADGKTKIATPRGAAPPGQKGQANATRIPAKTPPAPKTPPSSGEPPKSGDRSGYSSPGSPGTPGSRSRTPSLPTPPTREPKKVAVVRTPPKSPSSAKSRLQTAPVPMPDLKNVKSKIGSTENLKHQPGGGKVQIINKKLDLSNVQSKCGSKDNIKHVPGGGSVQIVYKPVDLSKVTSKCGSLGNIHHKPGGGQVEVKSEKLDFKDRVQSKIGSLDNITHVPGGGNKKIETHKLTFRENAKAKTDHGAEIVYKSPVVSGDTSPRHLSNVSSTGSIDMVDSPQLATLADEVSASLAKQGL

[2] = molecular target: PKA-phosphorylated full-length Tau (Homo sapiens) (UniProt P10636); assay: SPR Biacore 2000, bivalent IgG1 analyte, ~824 RU PKA-phospho Tau, ligand density 2
[3] = molecular target: PKA-phosphorylated full-length Tau (Homo sapiens) (UniProt P10636); assay: SPR Biacore 2000, bivalent IgG1 analyte, ~153 RU PKA-phospho Tau, ligand density 1
[4] = molecular target: PKA-phosphorylated full-length Tau (Homo sapiens) (UniProt P10636); assay: ELISA: plate coated with 1 µg/ml PKA-phosphorylated full-length Tau, IgG titrated 0.06 pM to 1 nM, anti-human Fc-peroxidase/TMB, absorbance 450 nm [panel A]
Non-phospho. = molecular target: T1, Non-phospho. (not fully specified; printed as Biotin - linker - GDTSPRHLSNVSSTGSID; reading uncertain); assay: ELISA: plate coated with 5 µg/ml IgG, 10 nM biotinylated peptide in solution, streptavidin-peroxidase/TMB, absorbance 450 nm
T1 construct: also called non-phosphorylated biotinylated Tau 401-418 peptide
T1 peptide: {Biotin-linker}-GDTSPRHLSNVSSTGSID
Experimental: FIG. 3. Binding of immobilized IgG antibodies to Tau-derived biotinylated peptides containing pS404 and/or pS409 as measured by ELISA. […] 10 nM of the biotinylated peptides shown in FIG. 3, and 5 μg/ml IgG, were used.
Specificity of the top five clones for phosphoserine 404 and phosphoserine 409 was also assessed by ELISA. In one experiment (FIG. 3), Nunc maxisorp microplates were coated with 5 μg/ml IgG in coating buffer (sodium carbonate pH9.6) for 70 minutes at ambient temperature. Non-specific binding sites were blocked with BBT for a minimum of 2 hours then the plates washed and 10 nM biotinylated peptide in BBT added. After 1.5 hours bound peptide was detected by a 65 minute incubation with peroxidase-conjugated Streptavidin and detection with TMB as described above. […] The peptides synthesized and used in this experiment (which correspond to amino acids 401-418 of full-length Tau) have the following amino acid sequences (Table B): […]

B1: TAM20 IgG1 (antibody, V domains shown)
VH: EVQLVQSGAEVKKPGSSVKVSCKASGYTFTDYYMNWVRQAPGQGLEWIGDINPNRGGTTYNQKFKGRVTITVDKSTSTAYMELSSLRSEDTAVYYCASYYAVGYWGQGTTVTVSS
VL: DIVMTQTPLSLPVTPGEPASISCRSSQSLVHSHGRTYLHWYLQKPGQSPQLLIYKVSNRFFGVPDRFSGSGSGTDFTLKISRVEAEDVGVYFCSQTRHFPYTFGGGTKVEIKR
For B1, the EC50 (read off the curve) [1] was 0.02 nM, the Kd [2] was 0.2 nM and the koff [2] was 0.0003 s⁻¹. The kon [2] was 1.6e+06 M⁻¹ s⁻¹, the Kd [3] was 0.8 nM and the koff [3] was 0.0012 s⁻¹. The kon [3] was 1.6e+06 M⁻¹ s⁻¹, the EC50 (read off the curve) [4] was 0.006 nM and the binding result (Non-phospho.) was “no binding (tested: 10 nM)”.
